Assay: soluble on expression in E. coli; label from the status in PepcDB or PDB records

| Sequence | soluble on expression in E. coli |
| --- | --- |
| MRNFKKPDVLVSKCLEHGRCRYDGQMISSDFVKSTKKYFNYVPVCPEVEIGLSIPRNSLKIVFENEKFEFVQNITNNNYTSKITQFSSDFLDSIENIDGAVLKHKSPSCGIKNVKVYTAKGNPTNQKTEGFFAKEVLYRYSNIAIEEESRLRNKRIKDHFLTKLYTIKDFKEVKESESIKNLIEFHTNNKFLFMAYNQKQKDILGNIVGNHNKNFDKIIKLYEKHLQLLLKRPSAIGSNINVLMHIFGYMSNKISKDEKLLFIDSLQRYHDELDCLCVPIILLKSWVIRFNVDYLKKQTYFEPFPQELADNSEMFKRDYWND | not soluble |
| MGSDKIHHHHHHMSYELARVPRGEHHFHSVRVRTGDVLGLIEKTAFFELDDTLFVYPFYQRFSYQVNERHQEDGVSGSSPIHQHHSSVAASVRNYQPGDRFAALDWKTSARRSQLMTKEFEPSRSKNLFLLMDRFSSDAFEEVVSVTASILHSVLKNGAGAGLASIGKEKNIFPIQEGDQHFKHMLRHLAIAHCDAADPISRYAREELGKPSVRQADQVVVTGQLTEDMLHLAEIGGGRVTVILAKEKDAELSQAENVMIERMMKRQIRVRIMRGGRVSRVV | not soluble |
| MPHKNTKSNVQKITASVASVIVSTGIVMNSSNRRVKATGKREDEIVEVESLKRADTETTKAAAVQTPKINQTKKMSHRTQKVTQMIHYVDEDERPVYDDYTASLIFEQTGILDNVTGKQTWNSNWLPKTTATFSAVEHPVVRNHHLVNPEINEVSAYDVEVTDDTFKNPLLKVHKVVYAHDIEPIKRTQVVTQTIHYRYEDGAVAHDDHVVSLIFTQSGKRDLTNGKEIWDSKWSLTQTFEALPSPVIIGYTADKPMVGPDEVTVDSKNFLDKQNREETVIYSANTITQNKKDGISEEKNVNNSVAVAPLKSAVMIGGVISILKFKRLMVIIKNKKDHKLEHHHHHH | soluble |
| MSNVQTSAEREIVDLSHLAFDCGMLGRLKTVSWTPVIAGDSFELDAVGALRLSPLRRGLAIDSKVDFFTFYIPHRHVYGDQWIQFMRDGVNAQPLPSVTCNRYPDHAGYVGTIVPANNRIPKFLHQSYLNIYNNYFRAPWMPERTEANPSNLNEDDARYGFRCCHLKNIWSAPLPPETKLAEEMGIESNSIDIMGLQAAYAQLHTEQERTYFMQRYRDVISSFGGSTSYDADNRPLLVMHTDFWASGYDVDGTDQSSLGQFSGRVQQTFKHSVPRFFVPEHGVMMTLALIRFPPISPLEHHYLAGKSQLTYTDLAGDPALIGNLPPREISYRDLFRDGRSGIKIKVAESIWYRTHPDYVNFKYHDLHGFPFLDDAPGTSTGDNLQEAILVRHQDYDACFQSQQLLQWNKQARYNVSVYRHMPTVRDSIMTS | soluble |
| MNSFKTRDVQVAVEAVEKEKIEFIPLRRTLRYLIVGIDPGATTAIAALDLRGELVDMKSRKGWSPAEVIEFISSLGKPVVVSTDKSSPPEFVSKIRASFNAVLYTPKEDMSVEKKRILTSKYSTSNDLEHHHHHH | not soluble |
| MGSDKIHHHHHHAATVKLTIIKSDLDMKASGGTGTVEFAATGTVTATVNADWCQVIEVADHKVSISVDANTGYPGRSAQIVLTDGVSTQQATILQEGAIWKYNRDATYFTLTDAAEEVPVEMSSNLPIQVSIPADASQWLSYEMTSDGFKFIAKENLTGKIRSAIVKVTTGIREIEYALLQYDIDDLLGQWTGVVKVVATAFGINQVLSLEENTQIVKNPGGNGYIFQLPMTRLLGATIVLAVTYQDGALVITTPQQQNYALSDGQGGVMYGSIITKTDDGLYLQGKIILSPVLMNDGQVALAYITDAYMSMGLFKGRVPSTANYAGLSIDFPAILMQYAE | not soluble |
| NYKREIKQVENYLSARRESGHFIGKENIDIYYEKYVIPNSKNSIVISHGFRESMVKYNETIYYFLKNGYSVYGLEHRGHARSGRLGKDSTQTSVDNFDYYVDDFKKYVDTIVEPDNRGKNLFLYAHSMGGAIGGLFLERYPKYFKAAVLSSPMFEVDTGRYPEFLSRAVASVFNFVNLGDTYAPGHHEYSCESDFENSCTTSNIRYDYYLDKTNKSRKIENGGASFKWVKESLKATDEVTDGKNASKVTIPVLLFQAENDDIVRPGGQDKFAKEAKKCKLIVIKNSKHEIYREKDSIMVPYFNKVFTFLNNNK | not soluble |
| MDLKQYITIVPDFPKPGIMFKDITTLMDNGPAYKYATDQIVQYAREKQIEIVVGPEARGFIIGCPVAYALGVGFAPVRKEGKLPREVVRVEYGLEYGTDVLTMHKDAIKPGQRVLITDDLLATGGTMRATIDLVEQLGGVVAGLAFLIELTELGGRKKLEGYDILTLMQF | soluble |
| MGVKVASSSTFLQWTTQPIIHQSSSPSQTLASGTITSPSKRRSTVHDGRFLSCRFVTQRLNRSALFGTPSTKLHRPKSCELWKSSSSSSRPIKTQSFRRVYSANLDPFSDEEFSKKIQELTLRFNIPHHDDDENSIEPPWNEMVHLSSIEMKANSVDLPLSLRIIKKKRQWEEGVKQAGESACCSMNKAFSSMVFMIRELQSFTLHMREILFYEDLQEILLRVREEMQQSFVWLFQQVFSATPTLMVYVMILLANFTVYSIGNNSSALAAVAPLPPTITELTTVSETEETNVKFDSSVVKTFFVSSPSGSIASVGGNNNGGGGNVKPVLSGTDGDGSDGSEQFRTIIPEGVSQLSSSNFGSEPSVSGQDEHRLWNSMVEEAERMQYSNIDDSLDQETRKRFVSHVEARVEAEEDTGYFKTELMYQTELSQEPNNPLLLANYAQFLYLVSNDHDRAEEYFKRAVGVEPKDAEAFSKYATFLWRARDDLWAAEETFLEAIDADPTNSYYAANYANFLWNTGGDDTCFPLDDESHEDTI | not soluble |
| THQMNQFYTTGAGRDIFATDEAKQVSAHLANEVDQLAQSLLKKEVYDKTKLFVADFVRQYPFADLSMIRTPAYRAWLEANQISEEDAVTTLGTMPEALGDVSDRLSLVSEQTPKIMTWKAQLLALNSSASIEKVNAALNSLQVTADSMRDFIDNNPEYMRYLAEQMAVELQPLVDDIDQKTEARLSQLGEERQALEEMVARERQEIALIITHEREKFAQDMDRVSQEVVNLAMTKLIELVKST | not soluble |
| MAHHHHHHMKTKVELKFLGGLESYLANKSKNYVSLEIESEEFNFENLIAYIRNHIIVDRKDVFSDFVMSDGNVKSCNVMIDDKEYSNYNLSDKGKIKPGIIVLINEYDWEILDTYTYKIKNNDKICFLSTLHGG | soluble |
| MSEVTNELMKTIGGLAKNPNFYLMMGPHHRGQRGHHRGQARLMHLLEKYDGLSVGEIAEILDVRPSSVTSLVDKLEENDFVERIVDEIDKRITLIKLTKKGHAFLKNKKDEADDLSEEIFARLSEEEKDTLLRLLKRVSENLNDVDFGDYISKMVNDSIGRHFKFDDGDIHINI | not soluble |
| MSLRSLTHIAKIELPPVRRVTYVKHYSIQPANLEFNAEGTPVSRDFDDVYFSNDNGLEETRYVFLGGNQLEARFPEHPHPLFVVAESGFGTGLNFLTLWQAFDQFREAHPQAQLQRLHFISFEKFPLTRADLALAHQHWPELAPWAEQLQAQWPMPLPGCHRLLLDEGRVTLDLWFGDINELISQLDDSLNQKVDAWFLDGFAPAKNPDMWTQNLFNAMARLARPGGTLATFTSAGFVRRGLQEAGFTMQKRKGFGRKREMLCGVMEQTLPLPCSTPWFNRTGSSKREVAIIGGGIASALLSLALLRRGWQVTLYCADEAPALGASGNRQGALYPLLSKHDEALNRFFSNGFTFARRLYDSLPVKFDHDWCGVTQLGWDEKSQHKIAQMLSMDLPEELAVAVEANAVEQITGVTTNCSGITYPQGGWLCPAELTRNVLELAQQQGLQIYYQYQLQDLSRKDDCWLLTFAGDQQATHSVVVLANGHQISRFSQTSSLPVYSVAGQVSHIPTTPELAKLKQVLCYDGYLTPQNPANQHHCIGASYHRGSEETAYSEDNQQQNRQRLIDCFPHAQWAKTVDVSKKEARCGVRCATRDHLPMVGNVPDYEATLVEYASLAEQKDKAVSAPVFDDLFMFAALGSRGLCSAPLCAEILAAQMSDEPIPMDASTLAALNPNRLWVRKLLKGKAVKAGEGHHHHHH | soluble |
| MVLSVADAKKLTVPRLKEELASRGLDNTGNKPELLARLTESIEQAADELLGDAGITSDTHLLSDDILNDDILDAPSVGDESEADKLLGSVDGAEEHKTDKSEGEEKHEVHLIDKKIDEVTAETDKRARAIRFGLPVTAEDLGSDGAKAARAKRFDLPEDSKRLTSNDAKASRAERFGITPKTPAADDKLAARAARFGIPVGGAASASASKNAPNSEGKAAKLAARAKRFGGEIDDEEMEAKKKARMERFGTSN | not soluble |
| MGSDKIHHHHHHMLSKDPRLYAFRDDLADKRFETEITAQRFIQGEKKRVNTAVAGLFKENNKKSEKQTECLLGEELLIFEQGKTMSWGQSLKDGYVGYIDTTILCTSAIKQTHIVSVPRTFQYLQADLRGPMEYPLSMGSKVSVVDETEVRGTIYAILESGKAIITRHLSPIGRVYEDYVTVAETLIHTPYLWGGVSGFGIDCSGLVQLSMMMTGKMVLRDTDMQQKTIGRVLTDSDKLKRGDLVFWNGHVAIMIDHENIIHANGYSMDVMIEPLEEAVTRIAKKYQYPIEKRRPIQEM | not soluble |
| MVPSFPFQRLPNKPFQNVLKSMSVGNLLSYSMCSEASKSHVTNLKVKINSFEINVTENVHLFVKSEHGPTFNFRTVTSANGNISDDVTPANENEKHRWYKKGFELRNWIEHFLSVLNHSKIDKLNFISQQGERSKNDYLRDSLEGFKVDCFTVQQCSESYQRSIFRNFSPINTFIICATGAESTKAISSALPHNLKDFGYVSRGATWNFSLDNLLLSNSRNLVVIEARFSFPDINMFLKHWLNGSNRRLTNAYFIYTTPLVSEDISKGLPFSIPSEAEISKLPSDLMEHRETMFQLKRKFDSTATIVLKQNNGKHVFNMFVEHF | not soluble |
| GPGSPSEENEGRQFIVCYYLADDTVSVFELQVPNSGHVGGKIFARRAVENLQDPTLLKVGNTIRLDGVDYLLKEMDERTKRYLEMGMPNMDESYFRTQEILGIAASYLQQQFSRITDAFRHYASSSTQGLTRENVREMLSDAGVHATDAELTNVMERADGDKDGWVSLADFTEQFMQQLFISNFKPRESQKRWGDTRNGVVVQRG | soluble |
| MEEARLLVTCPDRPGIVAAVSGFLYAHGANITDLQQHSTDPEGGTFFMRVAFTASHLDLARPALERAFQEVVASRFQMQWRLAYASERKRTAILVSKPAHALLELLWRYRVGELPMELRLVISNHPDHREEVERFGIPYHHVPVEKGRKEEAEERILALLEAEGVELVVLARYMQILSPGFVERFPMRIINIHHSFLPAFAGADPYRQAYERGVKLIGATAHYVTEELDQGPIIEQDVVRVSHRHSVREMKRLGRELERTVLARAVRWHLEDRILVHENRTVVFV | soluble |
| AIAPTATYAALIHADLDVLWGLLLDKLQSDEQFMPGLERAEIVPLSVAEDPTGVARFRQQHDRRLYFSDGRLVEERVTIDEERKNILLELRNDARYTGYVSTVLLPCPFPEATSGAHVLVRTMDWRAKRSLTDDEIEEGELLATKIRESTLRLKHEVESLRWSLDDSKDPDDE | soluble |
| MRRNGSVPDLNKNDAFRRPPAPKGGVEKRKKGRASGLDGRQKRYVRGAESLGSVLNKEIQRRGWGKDIAGGWVTSNWEELVGAKIAQHTRVEMIKDKKLFITCDSTAWATNLRMMQRQILQVIAEKVGPNIITELRIFGPQAPSWRKGPLHVKGRGPRDTYG | not soluble |
| MEVKIFNTQDVQDFLRVASGLEQEGGNPRVKQIIHRVLSDLYKAIEDLNITSDEYWAGVAYLNQLGANQEAGLLSPGLGFDHYLDMRMDAEDAALGIENATPRTIEGPLYVAGAPESVGYARMDDGSDPNGHTLILHGTIFDADGKPLPNAKVEIWHANTKGFYSHFDPTGEQQAFNMRRSIITDENGQYRVRTILPAGYGCPPEGPTQQLLNQLGRHGNRPAHIHYFVSADGHRKLTTQINVAGDPYTYDDFAYATREGLVVDAVEHTDPEAIKANDVEGPFAEMVFDLKLTRLVDGVDNQVVDRPRLAV | soluble |

Source: the DeepSol protein solubility set
